Measurements as given in PMC8967061, “Mechanism of Borrelia immune evasion by FhbA-related proteins” (PLoS Pathogens, 2022).
Residue numbers refer to the chain shown, from its start.

T1: BhFhbA Glu198Ala (Borrelia hermsii YOR, UniProt W5SB08 44-202, Glu198Ala)
T1 construct: FhbA of Borrelia hermsii strain YOR, residues 44-202 as the wild type construct, single alanine mutant; also called #10; source: E. coli BL21 (DE), purified (Ni-NTA, size-exclusion chromatography)
T1 sequence (looked up): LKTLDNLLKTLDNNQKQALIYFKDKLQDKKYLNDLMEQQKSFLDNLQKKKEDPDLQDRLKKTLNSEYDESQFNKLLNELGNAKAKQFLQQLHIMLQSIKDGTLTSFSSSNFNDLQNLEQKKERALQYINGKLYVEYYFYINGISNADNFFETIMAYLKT

T2: BhFhbA Phe181Ala (Borrelia hermsii YOR, UniProt W5SB08 44-202, Phe181Ala)
T2 construct: FhbA of Borrelia hermsii strain YOR, residues 44-202 as the wild type construct, single alanine mutant; also called #9; source: E. coli BL21 (DE), purified (Ni-NTA, size-exclusion chromatography)
T2 sequence (looked up): T1 sequence (looked up) with F138A, A155E

T3: BhFhbA Phe85Ala (Borrelia hermsii YOR, UniProt W5SB08 44-202, Phe85Ala)
T3 construct: FhbA of Borrelia hermsii strain YOR, residues 44-202 as the wild type construct, single alanine mutant; also called #1; source: E. coli BL21 (DE), purified (Ni-NTA, size-exclusion chromatography)
T3 sequence (looked up): T1 sequence (looked up) with F42A, A155E

T4: BhFhbA Asn153Ala (Borrelia hermsii YOR, UniProt W5SB08 44-202, Asn153Ala)
T4 construct: FhbA of Borrelia hermsii strain YOR, residues 44-202 as the wild type construct, single alanine mutant; source: E. coli BL21 (DE), purified (Ni-NTA, size-exclusion chromatography)
T4 sequence (looked up): T1 sequence (looked up) with N110A, A155E

T5: BhFhbA Asn88Ala (Borrelia hermsii YOR, UniProt W5SB08 44-202, Asn88Ala)
T5 construct: FhbA of Borrelia hermsii strain YOR, residues 44-202 as the wild type construct, single alanine mutant; also called #2; source: E. coli BL21 (DE), purified (Ni-NTA, size-exclusion chromatography)
T5 sequence (looked up): T1 sequence (looked up) with N45A, A155E

T6: BhFhbA Glu178Ala (Borrelia hermsii YOR, UniProt W5SB08 44-202, Glu178Ala)
T6 construct: FhbA of Borrelia hermsii strain YOR, residues 44-202 as the wild type construct, single alanine mutant; source: E. coli BL21 (DE), purified (Ni-NTA, size-exclusion chromatography)
T6 sequence (looked up): T1 sequence (looked up) with E135A, A155E

T7: BhFhbA Ile171Ala (Borrelia hermsii YOR, UniProt W5SB08 44-202, Ile171Ala)
T7 construct: FhbA of Borrelia hermsii strain YOR, residues 44-202 as the wild type construct, single alanine mutant; source: E. coli BL21 (DE), purified (Ni-NTA, size-exclusion chromatography)
T7 sequence (looked up): T1 sequence (looked up) with I128A, A155E

T8: BhFhbA Lys91Ala (Borrelia hermsii YOR, UniProt W5SB08 44-202, Lys91Ala)
T8 construct: FhbA of Borrelia hermsii strain YOR, residues 44-202 as the wild type construct, single alanine mutant; also called #3; source: E. coli BL21 (DE), purified (Ni-NTA, size-exclusion chromatography)
T8 sequence (looked up): T1 sequence (looked up) with K48A, A155E

T9: BhFhbA Met137Ala (Borrelia hermsii YOR, UniProt W5SB08 44-202, Met137Ala)
T9 construct: FhbA of Borrelia hermsii strain YOR, residues 44-202 as the wild type construct, single alanine mutant; also called #4; source: E. coli BL21 (DE), purified (Ni-NTA, size-exclusion chromatography)
T9 sequence (looked up): T1 sequence (looked up) with M94A, A155E

B1: Factor H binding protein A (FhbA) from Borrelia hermsii, wild type (domain or fragment)
chain: T1 sequence (looked up) with A155E
notes: FhbA of Borrelia hermsii strain YOR, without its leader peptide, residues 44-202; also called BhFhbA; Wild type BhFhbA; source: E. coli BL21 (DE), purified (Ni-NTA, size-exclusion chromatography)
B2: Factor H domains 19-20 (domain or fragment)
chain: DSTGKCGPPPPIDNGDITSFPLSVYAPASSVEYQCQNLYQLEGNKRITCRNGQWSEPPKCLHPCVISREIMENYNIALRWTAKQKLYSRTGESVEFVCKRGYRLSSRSHTLRTTCWDGKLEYPTCAKR
modifications: RED-tris-NTA dye label (in the MST assays only)
notes: human complement factor H, short consensus repeat domains 19-20, wild type; also called FH19-20; FH19-20 fragment

How the values were obtained:
Conditions in all cases: both partners purified
Factor H, full length = target: T10, Factor H, full length (human, UniProt P08603 19-1231, RED-tris-NTA dye label (in the MST assays only)); test: MST; full-length FH labelled with RED-tris-NTA dye, FhbA proteins titrated, PBS/0.025% Tween-20, 22 C
T10 construct: human complement factor H, 20 short consensus repeat domains; In the functional assays FH was that of whole blood or serum; also called FH; full-length FH; source: bought: Comptech (Complement Technologies), TX, USA

BhFhbA Glu198Ala = target: T1, BhFhbA Glu198Ala; test: MST; FH19-20 labelled with RED-tris-NTA dye (300 nM stock, mixed 1:1 with ligand), FhbA proteins titrated, PBS/0.025% Tween-20, 22 C
BhFhbA Phe181Ala = target: T2, BhFhbA Phe181Ala; test: as above
[1] = target: B1; test: as above
BhFhbA Phe85Ala = target: T3, BhFhbA Phe85Ala; test: as above
BhFhbA Asn153Ala = target: T4, BhFhbA Asn153Ala; test: as above
BhFhbA Asn88Ala = target: T5, BhFhbA Asn88Ala; test: as above
BhFhbA Glu178Ala = target: T6, BhFhbA Glu178Ala; test: as above
BhFhbA Ile171Ala = target: T7, BhFhbA Ile171Ala; test: as above
BhFhbA Lys91Ala = target: T8, BhFhbA Lys91Ala; test: as above
BhFhbA Met137Ala = target: T9, BhFhbA Met137Ala; test: as above

| Binder | Kd (Factor H, full length) | Kd (BhFhbA Glu198Ala) | Kd (BhFhbA Phe181Ala) | Kd [1] | Kd (BhFhbA Phe85Ala) | Kd (BhFhbA Asn153Ala) | Kd (BhFhbA Asn88Ala) | Kd (BhFhbA Glu178Ala) | Kd (BhFhbA Ile171Ala) | Kd (BhFhbA Lys91Ala) | Kd (BhFhbA Met137Ala) |
| --- | --- | --- | --- | --- | --- | --- | --- | --- | --- | --- | --- |
| B1 | 30 nM |  |  |  |  |  |  |  |  |  |  |
| B2 |  | 130 nM | 33 nM | 82 nM | 110 nM | 73 nM | 110 nM | 100 nM | 380 nM | 110 nM | 1000 nM |
